Results from patent US20070244048A1 (published 2007).
Where two headings read alike, the source gives them in different places. Non-standard residues stand in square brackets, D forms with d. No end group written: not given here. *: point of attachment. Succinimide(1-Et,3-yl) = CCN1C(=O)CC(*)C1=O; Palmitoyl = CCCCCCCCCCCCCCCC(=O)*; hArg = N=C(N)NCCCC[C@H](N)C(=O)O; dNle = CCCC[C@@H](N)C(=O)O

T1: rat NMUR1-ATG (rat, UniProt Q9JJI5 1-425)
T1 sequence (looked up): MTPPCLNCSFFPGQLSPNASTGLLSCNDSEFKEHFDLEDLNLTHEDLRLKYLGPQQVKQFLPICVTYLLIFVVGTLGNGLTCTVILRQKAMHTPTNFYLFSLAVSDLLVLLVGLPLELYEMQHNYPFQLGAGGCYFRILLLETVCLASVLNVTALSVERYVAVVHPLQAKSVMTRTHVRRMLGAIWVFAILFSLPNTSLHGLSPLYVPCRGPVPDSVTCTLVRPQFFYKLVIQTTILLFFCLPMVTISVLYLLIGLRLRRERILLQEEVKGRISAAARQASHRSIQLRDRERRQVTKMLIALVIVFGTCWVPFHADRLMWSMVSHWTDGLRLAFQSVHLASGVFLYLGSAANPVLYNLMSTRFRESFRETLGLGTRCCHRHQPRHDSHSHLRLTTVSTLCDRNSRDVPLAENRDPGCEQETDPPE

T2: rat NMUR1-TTG (rat, UniProt Q9JJI5 1-425)
T2 sequence (looked up): T1 sequence (looked up)

T3: human NMUR1 (human, UniProt Q9HB89 1-426)
T3 sequence (looked up): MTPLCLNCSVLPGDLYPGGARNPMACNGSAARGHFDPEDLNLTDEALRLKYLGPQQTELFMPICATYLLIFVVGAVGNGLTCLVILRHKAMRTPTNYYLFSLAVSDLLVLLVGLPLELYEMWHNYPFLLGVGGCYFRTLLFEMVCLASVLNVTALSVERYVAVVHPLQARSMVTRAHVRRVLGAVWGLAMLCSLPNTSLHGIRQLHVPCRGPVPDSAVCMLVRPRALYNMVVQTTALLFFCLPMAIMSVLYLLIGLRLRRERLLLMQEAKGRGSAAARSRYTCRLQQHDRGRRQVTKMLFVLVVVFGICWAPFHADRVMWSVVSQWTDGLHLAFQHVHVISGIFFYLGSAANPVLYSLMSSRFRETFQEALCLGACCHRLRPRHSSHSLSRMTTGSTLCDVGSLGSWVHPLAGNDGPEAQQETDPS

T4: mouse NMUR1-CTG (mouse, UniProt O55040 1-428)
T4 sequence (looked up): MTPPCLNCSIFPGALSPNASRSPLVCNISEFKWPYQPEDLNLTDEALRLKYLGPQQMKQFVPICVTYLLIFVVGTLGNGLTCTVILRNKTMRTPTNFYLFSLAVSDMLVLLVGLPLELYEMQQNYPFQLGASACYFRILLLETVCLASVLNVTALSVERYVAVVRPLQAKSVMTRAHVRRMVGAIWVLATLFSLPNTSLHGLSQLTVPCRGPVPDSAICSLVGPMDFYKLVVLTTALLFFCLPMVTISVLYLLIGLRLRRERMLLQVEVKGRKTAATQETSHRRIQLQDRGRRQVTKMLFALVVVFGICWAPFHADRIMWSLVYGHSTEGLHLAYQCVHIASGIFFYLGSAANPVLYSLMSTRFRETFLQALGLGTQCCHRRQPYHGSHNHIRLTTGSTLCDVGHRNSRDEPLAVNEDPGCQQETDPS

T5: mouse NMUR1-ATG (mouse, UniProt O55040 1-428)
T5 sequence (looked up): T4 sequence (looked up)

B1: neuromedin U receptor agonist B (peptide)
peptide: YF[dL]WRPRN-NH2
modifications: N-terminus assumed
SMILES: CC(C)C[C@@H](NC(=O)[C@H](Cc1ccccc1)NC(=O)[C@@H](N)Cc1ccc(O)cc1)C(=O)N[C@@H](Cc1c[nH]c2ccccc12)C(=O)N[C@@H](CCCNC(=N)N)C(=O)N1CCC[C@H]1C(=O)N[C@@H](CCCNC(=N)N)C(=O)N[C@@H](CC(N)=O)C(N)=O
B2: neuromedin U receptor agonist D (peptide)
peptide: YF[dA]WRPRN-NH2
modifications: N-terminus assumed
SMILES: C[C@@H](NC(=O)[C@H](Cc1ccccc1)NC(=O)[C@@H](N)Cc1ccc(O)cc1)C(=O)N[C@@H](Cc1c[nH]c2ccccc12)C(=O)N[C@@H](CCCNC(=N)N)C(=O)N1CCC[C@H]1C(=O)N[C@@H](CCCNC(=N)N)C(=O)N[C@@H](CC(N)=O)C(N)=O
B3: neuromedin U receptor agonist I (peptide)
peptide: FWLFRP[hArg]N-NH2
modifications: N-terminus assumed
SMILES: CC(C)C[C@H](NC(=O)[C@H](Cc1c[nH]c2ccccc12)NC(=O)[C@@H](N)Cc1ccccc1)C(=O)N[C@@H](Cc1ccccc1)C(=O)N[C@@H](CCCNC(=N)N)C(=O)N1CCC[C@H]1C(=O)N[C@@H](CCCCNC(=N)N)C(=O)N[C@@H](CC(N)=O)C(N)=O
B4: neuromedin U receptor agonist J (peptide)
peptide: FWLFRA[hArg]N-NH2
modifications: N-terminus assumed
SMILES: CC(C)C[C@H](NC(=O)[C@H](Cc1c[nH]c2ccccc12)NC(=O)[C@@H](N)Cc1ccccc1)C(=O)N[C@@H](Cc1ccccc1)C(=O)N[C@@H](CCCNC(=N)N)C(=O)N[C@@H](C)C(=O)N[C@@H](CCCCNC(=N)N)C(=O)N[C@@H](CC(N)=O)C(N)=O
B5: neuromedin U receptor agonist P (peptide)
peptide: FRVDEEFQSPFASQSRGFWLFRA[hArg]N-NH2
modifications: N-terminus assumed
SMILES: CC(C)C[C@H](NC(=O)[C@H](Cc1c[nH]c2ccccc12)NC(=O)[C@H](Cc1ccccc1)NC(=O)CNC(=O)[C@H](CCCNC(=N)N)NC(=O)[C@H](CO)NC(=O)[C@H](CCC(N)=O)NC(=O)[C@H](CO)NC(=O)[C@H](C)NC(=O)[C@H](Cc1ccccc1)NC(=O)[C@@H]1CCCN1C(=O)[C@H](CO)NC(=O)[C@H](CCC(N)=O)NC(=O)[C@H](Cc1ccccc1)NC(=O)[C@H](CCC(=O)O)NC(=O)[C@H](CCC(=O)O)NC(=O)[C@H](CC(=O)O)NC(=O)[C@@H](NC(=O)[C@H](CCCNC(=N)N)NC(=O)[C@@H](N)Cc1ccccc1)C(C)C)C(=O)N[C@@H](Cc1ccccc1)C(=O)N[C@@H](CCCNC(=N)N)C(=O)N[C@@H](C)C(=O)N[C@@H](CCCCNC(=N)N)C(=O)N[C@@H](CC(N)=O)C(N)=O
B6: neuromedin U receptor agonist Q (peptide)
peptide: FRVDEEFQSPFASQSRGFWLFRPR[dNle]-NH2
modifications: N-terminus assumed
SMILES: CCCC[C@@H](NC(=O)[C@H](CCCNC(=N)N)NC(=O)[C@@H]1CCCN1C(=O)[C@H](CCCNC(=N)N)NC(=O)[C@H](Cc1ccccc1)NC(=O)[C@H](CC(C)C)NC(=O)[C@H](Cc1c[nH]c2ccccc12)NC(=O)[C@H](Cc1ccccc1)NC(=O)CNC(=O)[C@H](CCCNC(=N)N)NC(=O)[C@H](CO)NC(=O)[C@H](CCC(N)=O)NC(=O)[C@H](CO)NC(=O)[C@H](C)NC(=O)[C@H](Cc1ccccc1)NC(=O)[C@@H]1CCCN1C(=O)[C@H](CO)NC(=O)[C@H](CCC(N)=O)NC(=O)[C@H](Cc1ccccc1)NC(=O)[C@H](CCC(=O)O)NC(=O)[C@H](CCC(=O)O)NC(=O)[C@H](CC(=O)O)NC(=O)[C@@H](NC(=O)[C@H](CCCNC(=N)N)NC(=O)[C@@H](N)Cc1ccccc1)C(C)C)C(N)=O

Experiments:
rat NMUR1-ATG = molecular target: T1, rat NMUR1-ATG; experiment: cell-based or functional assay
rat NMUR1-TTG = molecular target: T2, rat NMUR1-TTG; experiment: cell-based or functional assay
rat NMUR2 = rat NMUR2 (rat, UniProt Q9ESQ4 1-395); experiment: cell-based or functional assay
Sequence of rat NMUR2 (Q9ESQ4 whole entry): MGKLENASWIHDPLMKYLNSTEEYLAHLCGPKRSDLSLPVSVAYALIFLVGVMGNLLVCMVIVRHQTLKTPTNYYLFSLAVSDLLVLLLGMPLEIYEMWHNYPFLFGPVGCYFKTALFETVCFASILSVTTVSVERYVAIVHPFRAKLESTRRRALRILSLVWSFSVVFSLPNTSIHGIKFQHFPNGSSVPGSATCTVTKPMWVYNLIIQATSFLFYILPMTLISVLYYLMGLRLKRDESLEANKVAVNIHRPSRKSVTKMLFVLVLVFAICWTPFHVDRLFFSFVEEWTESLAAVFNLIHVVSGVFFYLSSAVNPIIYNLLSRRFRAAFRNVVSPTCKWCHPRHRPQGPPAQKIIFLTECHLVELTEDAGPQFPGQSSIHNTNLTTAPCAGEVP

human NMUR2 [1] = molecular target: T6, human NMUR2 (human, UniProt Q9GZQ4 1-415); experiment: cell-based or functional assay
T6 sequence (Q9GZQ4 whole entry): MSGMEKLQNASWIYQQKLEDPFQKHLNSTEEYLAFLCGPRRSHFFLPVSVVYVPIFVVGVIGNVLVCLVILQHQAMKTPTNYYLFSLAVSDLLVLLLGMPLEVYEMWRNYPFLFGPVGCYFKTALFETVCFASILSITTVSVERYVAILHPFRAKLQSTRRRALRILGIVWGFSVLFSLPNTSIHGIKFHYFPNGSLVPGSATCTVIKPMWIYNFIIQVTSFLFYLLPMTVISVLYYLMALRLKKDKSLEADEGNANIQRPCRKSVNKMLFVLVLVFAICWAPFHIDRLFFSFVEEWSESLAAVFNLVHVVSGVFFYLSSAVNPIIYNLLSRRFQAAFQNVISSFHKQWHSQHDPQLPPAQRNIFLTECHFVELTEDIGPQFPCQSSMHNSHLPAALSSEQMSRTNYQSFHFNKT

human NMUR1 [2] = molecular target: T3, human NMUR1; experiment: cell-based or functional assay
mouse NMUR1-CTG = molecular target: T4, mouse NMUR1-CTG; experiment: cell-based or functional assay
mouse NMUR2 = mouse NMUR2 (mouse, UniProt Q8BZ39 1-395); experiment: cell-based or functional assay
Sequence of mouse NMUR2 (Q8BZ39 whole entry): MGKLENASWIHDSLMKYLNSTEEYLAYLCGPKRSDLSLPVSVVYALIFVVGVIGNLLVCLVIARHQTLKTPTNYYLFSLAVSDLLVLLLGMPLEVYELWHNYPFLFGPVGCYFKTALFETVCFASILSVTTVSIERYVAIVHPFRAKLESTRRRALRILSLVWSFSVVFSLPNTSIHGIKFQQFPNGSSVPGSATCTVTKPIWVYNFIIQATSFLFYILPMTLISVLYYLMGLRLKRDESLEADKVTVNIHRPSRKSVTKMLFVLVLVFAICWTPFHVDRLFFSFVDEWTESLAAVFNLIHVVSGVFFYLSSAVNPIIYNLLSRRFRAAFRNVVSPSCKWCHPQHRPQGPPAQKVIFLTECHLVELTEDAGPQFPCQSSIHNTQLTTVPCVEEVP

mouse NMUR1-ATG = molecular target: T5, mouse NMUR1-ATG; experiment: cell-based or functional assay
human NMUR2 [3] = molecular target: T6, human NMUR2; experiment: cell-based or functional assay; remark: listed apart in the source
human NMUR1 [4] = molecular target: T3, human NMUR1; experiment: cell-based or functional assay; remark: listed apart in the source
human NMUR2 [5] = molecular target: T6, human NMUR2; experiment: 125I-hNMU-25 displacement, HEK cell membranes
Experimental: (§1) Confluent cell monolayers expressing NMU receptors (the HEK cells described above) were harvested with phosphate buffered saline, collected by centrifugation, and resuspended in membrane buffer (50 mM TrisCl pH 7.4, 5 mM MgCl₂, 1× Protease Inhibitor Cocktail, 10 μM phosphoramidon). After the cell pellet was homogenized, the solution was centrifuged at 18,000 rpm for 20 minutes at 4° C. The pellet was resuspended in membrane buffer to yield a final concentration of 0.5-5 μg/μL of membrane and stored at −80° C.
(§2) Experiments were performed in assay buffer (25 mM TrisCl, pH 7.4, 10 mM MgCl₂, 2mM EDTA, 1× Protease Inhibitor Cocktail, 100 μg/mL Bacitricin, 10 μM phosphoramidon) in 200 μL volumes in a 96-well format using 2-5 μg of membrane and […] ¹²⁵I-hNMU-25 (about 12,000 cpm/well). For non-specific binding, 1 μM hNMU-25 was added. About 5 μL of peptides were added to measure antagonist activity, and the entire reaction was incubated at room temperature with shaking for 80 minutes. The reaction was terminated by rapid filtration through 0.3% poly-ethylenimine presoaked Millipore 96-well filter plates and washed with ice-cold buffer (5 mM TrisCl pH 7.4, 10 mM MgCl₂, 2.5 mM EDTA, 0.04% Triton X-100). Plates were air-dried overnight at room temperature and recovered radioactivity was determined by standard scintillation counting. IC₅₀ values were determined using GraphPad Prism software.
(§3) Concentration-response curves and radioligand-binding data were fitted using Prism (GraphPad Software). Results are summarized below in Tables 8 and 9.

human NMUR1 [6] = molecular target: T3, human NMUR1; experiment: 125I-hNMU-25 displacement, HEK cell membranes
Experimental: as §1, §2, §3

human NMUR2 [7] = molecular target: T6, human NMUR2; experiment: cell-based or functional assay; remark: listed apart in the source
human NMUR1 [8] = molecular target: T3, human NMUR1; experiment: cell-based or functional assay; remark: listed apart in the source

Binder	% activity (human NMUR2 [3])	IC50 (nM), functional (human NMUR2 [3])	% activity (human NMUR1 [4])	IC50 (nM), functional (human NMUR1 [4])	% activity (binding) (human NMUR2 [5])	% activity (binding) (human NMUR1 [6])	IC50 (human NMUR1 [6])	% activity (human NMUR2 [7])	EC50 (human NMUR2 [7])	% activity (human NMUR1 [8])	EC50 (human NMUR1 [8])	IC50 (human NMUR2 [5])	other results
Palmitoyl-C(Succinimide(1-Et,3-yl))FRVDEEFQSPFASQSRGYFLFRPRN-NH2 [NMU24]	–	–	–	–	–	–	–	–	–	–	–	–	% Activity (FLIPR) (rat NMUR1-ATG): 80.8%; EC50 (FLIPR) (rat NMUR1-ATG): 236 nM; % Activity (FLIPR) (rat NMUR1-TTG): 67.7%; EC50 (FLIPR) (rat NMUR1-TTG): 222 nM; % Activity (FLIPR) (rat NMUR2): 52.2%; EC50 (FLIPR) (rat NMUR2): 986 nM; % Activity (FLIPR) (human NMUR2 [1]): 63.9%; EC50 (FLIPR) (human NMUR2 [1]): 1000 nM; % Activity (FLIPR) (human NMUR1 [2]): 34.4%; EC50 (FLIPR) (human NMUR1 [2]): 1000 nM; % Activity (FLIPR) (mouse NMUR1-CTG): 56.1%; EC50 (FLIPR) (mouse NMUR1-CTG): 591 nM; % Activity (FLIPR) (mouse NMUR2): 82.4%; EC50 (FLIPR) (mouse NMUR2): 1000 nM; % Activity (FLIPR) (mouse NMUR1-ATG): 81.4%; EC50 (FLIPR) (mouse NMUR1-ATG): 1000 nM
B1	0%	> 1000 nM	103%	9 nM	35%	96%	14 nM	–	–	–	–	–	–
YFGWRPRN-NH2 [neuromedin U receptor agonist C]	0%	> 1000 nM	87%	1.1 nM	0%	100%	0.42 nM	–	–	–	–	–	–
B2	0%	> 1000 nM	96%	1.5 nM	0%	100%	2.6 nM	–	–	–	–	–	–
B3	–	–	–	–	90%	23%	–	99%	10 nM	7%	> 1000 nM	9.1 nM	–
B4	–	–	–	–	63%	34%	–	59%	160 nM	0%	> 1000 nM	150 nM	–
FALFRPRN-NH2 [neuromedin U receptor agonist N]	–	–	–	–	100%	38.4%	–	100%	3.9 nM	87%	53 nM	22 nM	–
B5	–	–	–	–	81%	1%	–	100%	25 nM	11%	46 nM	150 nM	–
B6	–	–	–	–	89%	16%	–	97%	18.3 nM	0%	> 1000 nM	12 nM	–
